In PMC3005984, “Identification and Partial Characterization of an L-Tyrosine Aminotransferase (TAT) from Arabidopsis thaliana” (Biochemistry Research International, 2010):

What was measured:
Format in all cases: biochemical, Arabidopsis thaliana
[1] = substrate: N[C@@H](Cc1ccccc1)C(=O)O; experiment: forward assay, phenylpyruvate at A320, nonlinear regression; details: acceptor 2-ketoglutarate at saturation, 100 mM HEPES-NaOH pH 8.2, 30°C
Description: forward assay, phenylpyruvate at A320, nonlinear regression on At5g36160 (L-tyrosine aminotransferase, TAT)

[2] = substrate: N[C@@H](Cc1ccc(O)cc1)C(=O)O; experiment: forward assay, 4-hydroxyphenylpyruvate at A331, nonlinear regression; details: acceptor 2-ketoglutarate at saturation, 100 mM HEPES-NaOH pH 8.2, 30°C
Description: forward assay, 4-hydroxyphenylpyruvate at A331, nonlinear regression on At5g36160 (L-tyrosine aminotransferase, TAT)

[3] = substrate: O=C(O)CCC(=O)C(=O)O; experiment: forward assay, product absorbance, nonlinear regression; details: amino donor at saturation (donor for this constant only in supplement), 100 mM HEPES-NaOH pH 8.2, 30°C
Description: forward assay, product absorbance, nonlinear regression on At5g36160 (L-tyrosine aminotransferase, TAT)

[4] = substrate: O=C(O)C(=O)Cc1ccc(O)cc1; experiment: reverse assay, coupled to 2-ketoglutarate dehydrogenase, NADH at A340, nonlinear regression; details: amino donor glutamate at saturation, 100 mM HEPES-NaOH pH 8.2, 30°C
Description: (§1) reverse assay, coupled to 2-ketoglutarate dehydrogenase, NADH at A340, nonlinear regression on At5g36160 (L-tyrosine aminotransferase, TAT)

[5] = substrate: N[C@@H](CCC(=O)O)C(=O)O; experiment: as above; details: amino acceptor at saturation (acceptor for this constant only in supplement), 100 mM HEPES-NaOH pH 8.2, 30°C
Description: as §1

[6] = substrate: O=C(O)C(=O)Cc1ccccc1; experiment: as above; details: amino donor glutamate at saturation, 100 mM HEPES-NaOH pH 8.2, 30°C
Description: as §1

B1: At5g36160 (L-tyrosine aminotransferase, TAT) (Arabidopsis thaliana) (protein)
chain: MGENGAKRWNFGANEVVERSNSLTIRDYLNTLINCLDGGDVRPVIPLGHGDPSPFPSFRTDQAAVEAICDAVRSTKFNNYSSSSGVPVARKAVAEYLSSDLSYQISPNDVHITAGCVQAIEILISALAIPGANILLPRPTYPMYDSRAAFCQLEVRYFDLLPENGWDVDLDGVEALADDKTVAILVINPCNPCGNVFSRQHLQKIAETACKLGILVIADEVYDHFAFGDKPFVSMAEFAELVPVIVLGAISKRWFVPGWRLGWMVTLDPHGIMKDSGFVQTLINVVNMSTDPATFIQGAMPDIIGNTKEEFFSSKLEMVKKCAEICYEELMKIPCITCPCKPEGSMFTMVKLNFSLLEDISDDLDFCSKLAKEESMIILPGQAVGLKNWLRITFAVELELLIEGFSRLKNFTERHSKNQP
notes: full-length cDNA in pET30a, N-terminal His6 and S-tag kept, E. coli BL21-CodonPlus-RIPL, Talon purified, about 52 kDa on SDS-PAGE; EC 2.6.1.5
With B1 as the protein, how does the Km [1] read?
Its Km is 840 ± 200 µM.

And the kcat [1]?
The kcat was 0.08 s⁻¹.

And the Km [2]?
Its Km is 190 ± 160 µM.

And the kcat [2]?
Its kcat is 0.08 s⁻¹.

What about the Km [3] of the same protein?
The Km was 1200 ± 270 µM.

And the kcat [3]?
Its kcat is 0.08 s⁻¹.

And the Km [4]?
The Km was 220 ± 50 µM.

What about the kcat [4] of the same protein?
Its kcat is 6.1 s⁻¹.

And the Km [5]?
The Km was 1400 ± 160 µM.

And the kcat [5]?
The kcat was 6.1 s⁻¹.

What about the Km [6] of the same protein?
Its Km is 130 ± 60 µM.

And the kcat [6]?
Its kcat is 6.1 s⁻¹.
